Assay results published in article PMC11774494.

Biological target: 17b (CD4-induced human monoclonal antibody)
Assay: flow cytometry of transfected 293T cells: staining with 10 μg/ml 17b with or without sCD4-183, detection with APC anti-human IgG F(ab')2, arithmetic mean APC fluorescence of live (propidium iodide negative) single cells; 'All titrations …
Settings: sCD4-183 at 0, 0.078125, 0.3125, 1.25, 5, 20, 80 μM (row value in value_extra.sCD4_183_uM), 20 min staining at room temperature, CAUTION: 17b staining of cell-surface trimers with sCD4, mostly reports trimer opening, normalized per Env, one titration each. Higher = more 17b staining of cell-surface Env. 17b's epitope is exposed, numbering: unknown, sequence starts at 1
[1] = AUC over sCD4-183 0-80 μM, parent: 0.907, scale: area under the normalized MFI curve, log10 x-axis
[2] = sCD4-183 0 μM, parent: 0.0187, scale: normalized MFI
[3] = sCD4-183 0.078125 μM, parent: 0.0465, scale: normalized MFI
[4] = sCD4-183 0.3125 μM, parent: 0.0578, scale: normalized MFI
[5] = sCD4-183 1.25 μM, parent: 0.0973, scale: normalized MFI
[6] = sCD4-183 5 μM, parent: 0.198, scale: normalized MFI
[7] = sCD4-183 20 μM, parent: 0.585, scale: normalized MFI
[8] = sCD4-183 80 μM, parent: 1, scale: normalized MFI

Row | Substance | screen value [1] | screen value [2] | screen value [3] | screen value [4] | screen value [5] | screen value [6] | screen value [7] | screen value [8]
1 | HIV-1 JR-CSF envelope glycoprotein gp160 (Env), P20871 JR-CSF_T320A | 2.47 | 0.13 | 0.297 | 0.477 | 0.754 | 0.942 | 1 | 0.974
2 | HIV-1 JR-CSF envelope glycoprotein gp160 (Env), P20871 JR-CSF_Y384A |  | 0.03 | 0.141 | 0.264 | 0.357 | 0.491 | 0.712 | 1
3 | HIV-1 JR-CSF envelope glycoprotein gp160 (Env), P20871 JR-CSF_Y177A | 2.87 | 0.317 | 0.576 | 0.719 | 0.858 | 0.82 | 0.942 | 1
4 | HIV-1 JR-CSF envelope glycoprotein gp160 (Env), P20871 JR-CSF_W112A | 1.64 | 0.00342 | 0.153 | 0.255 | 0.378 | 0.566 | 0.852 | 1
5 | HIV-1 JR-CSF envelope glycoprotein gp160 (Env), P20871 JR-CSF_I307A | 3.25 | 0.46 | 0.691 | 0.871 | 0.946 | 0.908 | 1 | 0.979
